This series concerns the molecule itself. Kind of series: AUC; ultracentrifugation of Sir2a; no details given (to be detailed in a later publication).

B1: Plasmodium falciparum Sir2a (enzyme, UniProt Q8IE47 1-273, looked up)
chain: MGNLMISFLKKDTQSITLEELAKIIKKCKHVVALTGSGTSAESNIPSFRGSSNSIWSKYDPRIYGTIWGFWKYPEKIWEVIRDISSDYEIEINNGHVALSTLESLGYLKSVVTQNVDGLHEASGNTKVISLHGNVFEAVCCTCNKIVKLNKIMLQKTSHFMHQLPPECPCGGIFKPNIILFGEVVSSDLLKEAEEEIAKCDLLLVIGTSSTVSTATNLCHFACKKKKKIVEINISKTYITNKMSDYHVCAKFSELTKVANILKGSSEKNKKIM
notes: Sir2a of Plasmodium falciparum, codon-optimized gene PF3D7_1328800 cloned into pET-28a; printed size 34 kDa; Protonated protein; The His tag is inferred from pET-28a and the TALON purification; removal of the tag is not mentioned; source: E. coli BL21 DE3, purified (HiTrap TALON, gel filtration)
B1: the stoichiometry N (as a rule, the number of molecules, sites or subunits per partner or assembly) was found to be 3.

For the origin of these results see paper PMC5139991, “SEC-SANS: size exclusion chromatography combined in situ with small-angle neutron scattering1” (Journal of Applied Crystallography, 2016).
